From patent US20120301461A1 (Merck Sharp & Dohme, published 2012) come the findings set out here.

Numbering of substitutions follows the chain as printed. Numbers in names are those of the source.

The target in experiment [1] is T1, murine PCSK9, V5- and His-tagged (mPCSK9v5His) (murine, UniProt Q80W65 35-694). Briefly: cell-based or functional assay.
The target in experiment [2] is T1, murine PCSK9, V5- and His-tagged …. Briefly: SPR (Biacore 2000), Fab captured on anti-Fab IgG, PCSK9 in flow; mean N=3. In general terms: Surface plasmon resonance follows binding to a sensor surface in real time, without labels.
Procedure: Anti-Fab IgG (Human specific) (Sigma, catalog #I5260) was covalently coupled to surfaces 1 and 2 of a Sensor Chip CM5 via primary amine groups, using the immobilization wizard with the “Aim for immobilization” option using Biacore™ Amine Coupling Kit (cat #BR-1000-50. A target immobilization of 5000 RU was specified. The wizard uses a 7 minute activation with a 1:1 mixture of 100 mM NHS (N-Hydroxysuccinimide) and 400 mM EDC (1-ethyl-3-(3-dimethylaminopropyl)-carbodiimide), injects the ligand in several pulses to achieve the desired level, then deactivates the remaining surface with a 7 minute pulse of ethanolamine.
Each Fab was captured by flowing a 500 ng/ml solution at 5 or 10 μl/min for 1-1.5 minutes to reach a target RL for an Rₘₐₓ of 100-150 RU for the reaction. 5-10 concentrations of hPCSK9v5His or mPCSK9v5His antigens were flowed across the surface at 30 μl/minute for 3-4 minutes. 15-60 minutes dissociation time was allowed before regeneration of the Anti-Fab surface with a 30 second pulse of 10 mM glycine pH 2.0.
For experiment [3] the target is unchanged. As to the kind of experiment: SPR (Biacore 2000), IgG captured on goat anti-human IgG, PCSK9 in flow; mean N=2.
Procedure: A goat Anti-Human IgG (Caltag, catalog #H10700) was covalently coupled to surfaces 1 and 2 of a Sensor Chip CM5 via primary amine groups, using the immobilization wizard with the “Aim for immobilization” option using Biacore™ Amine Coupling Kit (cat #BR-1000-50. A target immobilization of 5000 RU was specified. The wizard uses a 7 minute activation with a 1:1 mixture of 100 mM NHS (N-Hydroxysuccinimide) and 400 mM EDC (1-ethyl-3-(3-dimethylaminopropyl)-carbodiimide), injects the ligand in several pulses to achieve the desired level, then deactivates the remaining surface with a 7 minute pulse of ethanolamine.
IgG was captured by flowing a 10 nM solution at 10 μl/min for 1-1.5 minutes to reach a target RL for an Rₘₐₓ of 100-150 RU for the reaction. 5-10 concentrations of hPCSK9v5His or mPCSK9v5His antigens were flowed across the surface at 30 or 60 μl/minute for 4 minutes. 15-60 minutes dissociation time was allowed before regeneration of the Anti-IgG surface with a 60 second pulse of 10 mM Glycine pH 1.7.
The target in experiment [4] is T2, human PCSK9, V5- and His-tagged (hPCSK9v5His) (human, UniProt Q8NBP7 31-692).
T2 construct: Recombinant secreted protein; Peptides 31-49 (prodomain) and 153-; also called wt-hPCSK9; wt-PCSK9; not shown: V5 and His tags
Briefly: SPR (Bio-Rad ProteOn), Fab against human PCSK9-V5-His.

Experiment [5] deals with T1, murine PCSK9, V5- and His-tagged …. Briefly: kinetic constants of 1B20 Fab; method not named at the table (presumably SPR as in Example 6).

T2 sequence (Q8NBP7 31-692 limits assumed): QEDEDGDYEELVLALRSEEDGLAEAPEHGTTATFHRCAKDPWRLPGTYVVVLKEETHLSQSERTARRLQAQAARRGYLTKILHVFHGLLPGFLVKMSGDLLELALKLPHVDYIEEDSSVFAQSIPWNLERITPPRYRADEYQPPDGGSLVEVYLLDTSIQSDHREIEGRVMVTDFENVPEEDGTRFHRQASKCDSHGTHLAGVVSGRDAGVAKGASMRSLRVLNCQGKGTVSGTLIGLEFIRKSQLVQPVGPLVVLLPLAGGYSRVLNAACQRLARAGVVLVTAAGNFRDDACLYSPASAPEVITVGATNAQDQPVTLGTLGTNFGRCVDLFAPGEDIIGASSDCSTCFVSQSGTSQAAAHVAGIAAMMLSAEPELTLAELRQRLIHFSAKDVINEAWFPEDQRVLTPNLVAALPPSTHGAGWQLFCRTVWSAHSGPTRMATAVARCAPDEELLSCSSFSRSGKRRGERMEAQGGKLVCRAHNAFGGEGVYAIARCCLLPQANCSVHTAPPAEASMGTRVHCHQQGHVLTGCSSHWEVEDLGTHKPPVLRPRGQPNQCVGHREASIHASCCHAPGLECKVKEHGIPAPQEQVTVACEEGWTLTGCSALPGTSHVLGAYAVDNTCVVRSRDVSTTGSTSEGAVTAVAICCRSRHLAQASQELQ
T1 sequence (Q80W65 35-694 limits assumed): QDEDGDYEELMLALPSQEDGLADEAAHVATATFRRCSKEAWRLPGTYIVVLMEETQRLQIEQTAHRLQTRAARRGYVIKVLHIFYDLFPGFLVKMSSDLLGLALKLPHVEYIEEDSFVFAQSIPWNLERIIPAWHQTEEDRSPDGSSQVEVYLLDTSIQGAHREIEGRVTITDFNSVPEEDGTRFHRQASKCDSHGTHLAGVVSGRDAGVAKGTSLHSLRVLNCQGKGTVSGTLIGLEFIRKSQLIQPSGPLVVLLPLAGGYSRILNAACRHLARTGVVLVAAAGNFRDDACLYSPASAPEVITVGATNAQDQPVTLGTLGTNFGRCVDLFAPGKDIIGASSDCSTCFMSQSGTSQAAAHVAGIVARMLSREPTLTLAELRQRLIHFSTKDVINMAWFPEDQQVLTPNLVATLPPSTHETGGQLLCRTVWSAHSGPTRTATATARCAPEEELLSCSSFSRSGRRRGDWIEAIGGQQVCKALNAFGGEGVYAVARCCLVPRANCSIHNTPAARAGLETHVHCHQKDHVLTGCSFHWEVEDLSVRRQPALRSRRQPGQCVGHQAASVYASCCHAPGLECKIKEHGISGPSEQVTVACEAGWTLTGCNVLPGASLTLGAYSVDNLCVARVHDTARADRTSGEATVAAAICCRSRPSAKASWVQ

B1: m2CX1D05 Fab (Fab, V domains shown)
VH: QVQLVQSGAEVKKPGSSVKVSCKASGGTFNSHAISWVRQAPGQGLEWMGGINPILGIANYAQKFQGRVTITADESTSTAYMELSSLRSEDTAVYYCARHYEIQIGRYGMNVYYLMYRFASWGQGTLVTVSS
VL: DIQMTQSPSSLSASVGDRVTITCRASQGIRSALNWYQQKPGKAPKLLIYNGSTLQSGVPSRFSGSGSGTDFTLTISSLQPEDFAVYYCQQFDGDPTFGQGTKVEIKR
notes: also called Fab 1D05; mPCSK9 2CX1D05 Fab
What is called Kd is the equilibrium constant for the complex coming apart. Turning to B1, the “IC50, inhibition of PCSK9-dependent loss of cellular LDL uptake (Exopolar assay, HEK cells, PCSK9 5 ug/ml)” value in experiment [1] was 97 nM. For the same molecule, binding in experiment [2] was characterised by a dissociation constant (Kd) of 3.35 nM.

B2: 1D05 IgG2m4 (antibody, V domains shown)
VH: B1 VH
VL: B1 VL
notes: also called M2CX1D05 (IgG); IgG 1D05
For B2, in experiment [3], the dissociation constant Kd was 3.2 nM. Besides, in experiment [1], the “IC50, inhibition of PCSK9-dependent loss of cellular LDL uptake (Exopolar assay, HEK cells, PCSK9 5 ug/ml)” value is 85 nM.

B3: 1D05 Fab variant M48L (Fab, V domains shown)
VH: B1 VH with M48L
VL: B1 VL
notes: Tested as a Fab, with only the heavy chain mutated
Consider B3, for which, in experiment [4], the dissociation constant (Kd) was found to be 1.52 nM.

B4: 1D05 Fab variant N50Y (Fab, V domains shown)
VH: B1 VH
VL: B1 VL with N50Y
notes: Tested as a Fab, with only the light chain mutated
In turn, B4 had an equilibrium dissociation constant (Kd) in experiment [4] of 2.58 nM.

B5: 1D05 Fab variant M48L/M109L/M115L (Fab, V domains shown)
VH: B1 VH with M48L, M109L, M115L
VL: B1 VL
notes: as for B3
B5: binding in experiment [4] was characterised by a dissociation constant (Kd) of 1.13 nM.

B6: 1D05 Fab variant N50Q (Fab, V domains shown)
VH: B1 VH
VL: B1 VL with N50Q
notes: as for B4
As to B6, the equilibrium dissociation constant (Kd) in experiment [4] came to 0.615 nM.

B7: 1D05 Fab variant N50D (Fab, V domains shown)
VH: B1 VH
VL: B1 VL with N50D
notes: as for B4
On to B7, for which the Kd in experiment [4] is 3.42 nM.

B8: 1D05 Fab variant H32Y (Fab, V domains shown)
VH: B1 VH with H32Y
VL: B1 VL
notes: Site-directed mutant of 1D05, tested as a Fab, with only the heavy chain mutated
Molecule B8 registered a Kd in experiment [4] of 2.01 nM.

B9: 1D05 Fab variant N50T (Fab, V domains shown)
VH: B1 VH
VL: B1 VL with N50T
notes: as for B4
In experiment [4], B9 gave a Kd of 2.13 nM.

B10: 1D05 Fab variant M48A (Fab, V domains shown)
VH: B1 VH with M48A
VL: B1 VL
notes: as for B3
B10 showed a Kd in experiment [4] of 2.06 nM. The Kd values of the last two molecules are within 1.5-fold of each other.

B11: 1D05 Fab variant H99Y (Fab, V domains shown)
VH: B1 VH with H99Y
VL: B1 VL
notes: as for B3
In experiment [4], B11 gave a Kd of 1.45 nM. This Kd and that of the molecule before are within 1.5-fold of each other.

B12: 1D05 Fab variant M48V (Fab, V domains shown)
VH: B1 VH with M48V
VL: B1 VL
notes: as for B3
B12 displayed an equilibrium dissociation constant (Kd) in experiment [4] of 1.95 nM.

B13: 1B20 Fab (Fab, V domains shown)
VH: QVQLVQSGAEVKKPGESLKISCKGSGYSFTNYWISWVRQMPGKGLEWMGIIYPGDSYTNYSPSFQGQVTISADKSISTAYLQWSSLKASDTAMYYCARDYWYKPLFDIWGQGTLVTVSS
VL: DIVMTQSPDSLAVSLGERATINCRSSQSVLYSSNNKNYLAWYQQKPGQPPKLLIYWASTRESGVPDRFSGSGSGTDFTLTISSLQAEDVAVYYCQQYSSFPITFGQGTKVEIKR
In general, koff refers to the first-order rate constant of dissociation. Read a high koff as a short-lived complex. By kon is commonly meant a measure of how fast the partners come together. Low values mean slow association, high ones fast association. As for B13, in experiment [1], the “IC50, Exopolar assay (PCSK9-dependent loss of cellular LDL uptake)” value amounted to 152 nM. Further, in experiment [5], the Ka is 2e+09 M⁻¹, binding was characterised by a dissociation constant (Kd) of 0.51 nM, the dissociation rate constant (koff) came out at 7.18e-05 s⁻¹ and the kon came out at 141000 M⁻¹ s⁻¹.
